T1: S100A1 (Homo sapiens), P23297
T1 chain: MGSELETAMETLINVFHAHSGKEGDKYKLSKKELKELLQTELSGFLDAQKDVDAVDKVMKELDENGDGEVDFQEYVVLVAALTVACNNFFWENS

B1: TRPM6np K532A/R531A/R535A 520-535, Q9BX84 (peptide)
chain: LIGRAYRSNYTAAHFA
B2: TRPM6np K532A 520-535, Q9BX84 (peptide)
chain: LIGRAYRSNYTRAHFR
B3: TRPM6np K532A/R531A 520-535, Q9BX84 (peptide)
chain: LIGRAYRSNYTAAHFR
B4: TRPM6np K532A/R531A/R535A/R526A 520-535, Q9BX84 (peptide)
chain: LIGRAYASNYTAAHFA

Molecular target: T1, S100A1 (Homo sapiens), P23297
Assay: steady-state fluorescence anisotropy
Details: modification not given

Row | Kd [µM] | Binder
1 | 81.8 | B1
2 | 24.8 | B2
3 | 50.2 | B3
4 | 130 | B4

From publication PMC6770577, “TRPM6 N-Terminal CaM- and S100A1-Binding Domains” (International Journal of Molecular Sciences, 2019)
